Target: T1, human transferrin receptor-Fc tag standard (human, UniProt P02786 89-760, limits assumed)
T1 construct: Coated on the ELISA plate at 2 µg/ml; also called hTfR; not shown: Fc tag
Assay: ELISA, hTfR-Fc coated on plate; calculated from an expected saturation point, curve not saturated at 10000 nM

T1 sequence (P02786 89-760 limits assumed): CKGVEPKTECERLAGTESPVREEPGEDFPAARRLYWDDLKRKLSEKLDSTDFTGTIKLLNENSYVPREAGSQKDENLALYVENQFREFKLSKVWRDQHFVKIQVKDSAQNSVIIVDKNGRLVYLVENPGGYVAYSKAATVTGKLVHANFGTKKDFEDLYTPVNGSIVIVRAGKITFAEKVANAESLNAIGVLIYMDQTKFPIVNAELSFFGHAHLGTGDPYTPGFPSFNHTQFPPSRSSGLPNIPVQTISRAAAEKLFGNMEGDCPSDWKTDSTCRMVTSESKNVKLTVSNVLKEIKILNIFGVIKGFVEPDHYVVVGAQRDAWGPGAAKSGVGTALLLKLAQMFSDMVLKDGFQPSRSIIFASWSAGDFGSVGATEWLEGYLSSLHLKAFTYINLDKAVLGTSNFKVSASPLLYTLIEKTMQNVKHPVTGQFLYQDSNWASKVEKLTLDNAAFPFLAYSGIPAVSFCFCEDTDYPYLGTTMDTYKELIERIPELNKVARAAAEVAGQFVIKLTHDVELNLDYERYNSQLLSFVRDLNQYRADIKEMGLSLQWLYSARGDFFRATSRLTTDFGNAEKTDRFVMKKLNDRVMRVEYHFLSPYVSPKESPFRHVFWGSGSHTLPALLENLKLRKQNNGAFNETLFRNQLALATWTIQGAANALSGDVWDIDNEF

Kd: ~4.4 µM
B1: huHF_Mutant2-dual (other)
chain: MTTASTSQVRQNYHAASEAAINAQINLELYASYVYLSMSYYFDRDDVALKNFAKYFLHQSHEEREHAEKLMKLQNQRGGRIALADIQKPDCDDGGSYGSLYAFDIWESGLNAMECALHLEKNVNQSLLALHALATAKNDPHLCDFIETHYLNEQVKAIKELGDHVTNLRKMGAPESGLAEYLFDKHTLGDSDNESMPSFITLASLSTWEGYFDF
notes: Ferritin particle of 24 monomers
